The term Kd denotes the equilibrium constant for the complex coming apart.

These results are taken from paper PMC5062964.

One data set concerns the target PU.1ΔN167 (ETS domain) (mouse (murine), UniProt P17433 167-272). The data set is described as follows: competitive fluorescence anisotropy. (In general: In fluorescence polarisation assays a small probe gives low polarisation when free and higher when bound to something large.)
The target in data set [1] is T1, Ets-1ΔN331 (minimal ETS domain) (mouse (murine)?, UniProt P27577 331-440).
T1 sequence: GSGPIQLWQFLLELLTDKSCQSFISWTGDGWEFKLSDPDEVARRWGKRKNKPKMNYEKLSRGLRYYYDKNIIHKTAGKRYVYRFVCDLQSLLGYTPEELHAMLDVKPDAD
The data set is described as follows: competitive fluorescence anisotropy.

B1: SC1 hemi-methylated, forward (5'-GGAA-3' strand) (dsDNA)
DNA 1: CGGCCAAGCCGGAAGTGAGTGCC
DNA 2: GGCACTCACTTCCGGCTTGGCCG
modifications: 5-methyl-dC at strand 1 position 10 (CpG)
In turn, B1 came in with a Kd in the data set with PU.1ΔN167 (ETS domain) of 1.5 ± 0.9 nM.

B2: SC1 unmethylated (dsDNA)
DNA 1: CGGCCAAGCCGGAAGTGAGTGCC
DNA 2: GGCACTCACTTCCGGCTTGGCCG
With B2, the Kd came to 0.32 ± 0.17 nM in the data set with PU.1ΔN167 (ETS domain) and 0.14 ± 0.03 nM in data set [1].
